The text below walks through data of patent publication US8652790B2, “Conformational entropy in molecular recognition” (The Trustees of the University of Pennsylvania, priority 2007, dated 2014).

Test [1] deals with T1, calmodulin (Homo sapiens, UniProt P0DP23). As to the kind of experiment: Change in conformational entropy of calmodulin on binding a target domain, estimated from methyl O^2axis (harmonic oscillator model). The settings on record: 308 K; for TSconf: absolute conformational entropy of calmodulin in complex; for −TΔSconf: calmodulin upon binding target domain, free CaM reference state; for TSrotamer(fast) / TSrotamer(slow): classical entropy; for TSrotamer(fast): fast rotamer interconversion; for TSrotamer(slow): slowly interconverting conformers; for TSharm: motion within a rotameric well, simple harmonic oscillator. The source says: Guided by Karplus and co-workers (see Karplus M et al. (1987)), the present approach connects the change in internal protein dynamics to the conformational entropy, describing the protein as a disjoint multidimensional harmonic well: Sconf=ΣpiS^hi−kBΣpilnpi (2) where S^hi represents the entropy manifested by fast intra-well motion and the second term corresponds to the classical conformational entropy arising from the i=1 . . . N distinct conformations. Here S^hi is obtained from interpretation of local order parameters, which is model-dependent. The present approach finds its modern roots in the work described in Akke, M., Bruschweiler, R. & Palmer, A. G. NMR order parameters and free-energy—an analytical approach and its application to cooperative Ca^2+ binding by calbindin-D(9k). J. Am. Chem. Soc. 115, 9832-9833 (1993), in which a specific motional model (potential energy function) is used to provide a parametric relationship between what is measured, the squared generalized order parameter, and what is sought, a thermodynamic quantity such as the entropy.
A simple harmonic oscillator treatment was selected to make this connection. Li, Z., Raychaudhuri, S. & Wand, A. J. Insights into the local residual entropy of proteins provided by NMR relaxation. Prot. Sci. 5, 2647-2650 (1996). It is important to note that the absolute entropies obtained in this way are very dependent on the details of the potential energy function but that differences in entropy calculated from changes in O^2 are fairly insensitive to the model used. Li, Z, et al. (1996); Lee, A. L. et al. Temperature dependence of the internal dynamics of a calmodulin peptide complex. Biochemistry 41, 13814-13825 (2002). As the reference state for obtaining ΔSconf we use calcium-saturated calmodulin. The second term of equation (2) represents classical entropy arising from the local heterogeneity of side-chain conformers. This can be manifested on a range of timescales. […] This was interpreted as classical entropy with the population of each state (pi) estimated from the intensity of cross peaks. […] Lee, A. L. et al. (2002). This also represents conformational entropy and was estimated using a previously described model. Id.
The change in conformational entropy of calmodulin on binding a target domain was estimated as the sum of three terms: ΔSconf=ΔSharm+ΔSrotamer(fast)+ΔSrotamer(slow). Sharm was obtained from O^2axis parameters using a harmonic oscillator model. Li, Z., Raychaudhuri, S. & Wand, A. J. Insights into the local residual entropy of proteins provided by NMR relaxation. Prot. Sci. 5, 2647-2650 (1996). Free calcium-saturated calmodulin was used as the reference state in site-to-site comparisons. To normalize the unequal number of resolved sites among the complexes, the average methyl order parameter within a complex was assigned to each unresolved site of that complex. A classical entropy term ΔSrotamer(fast) was added to represent minor conformers that are sampled owing to fast rotameric interconversion. Lee, A. L. et al. Temperature dependence of the internal dynamics of a calmodulin peptide complex. Biochemistry 41, 13814-13825 (2002). For the small number of sites having multiple conformations in slow exchange on the NMR chemical shift timescale, an additional classical entropy contribution ΔSrotamer(slow) was calculated on the basis of measured intensities. Populations of the three motional classes were obtained using nonlinear regression of a three gaussian model to the observed order parameter distributions. […]

Test [2] has as its target T1, calmodulin. As to the kind of experiment: Populations of J, α, ω motional classes of calmodulin methyl O^2axis distributions in the complexes. On the procedure:
FIG. 3a, provides a histogram of the sum of the O^2axis parameter distributions of calmodulin in the six individual complexes obtained at 35° C. The solid line represents the best-fitted solution to a 3-gaussian distribution with all nine parameters fitted. FIG. 3b provides histograms of the O^2axis parameter distributions of calmodulin in the individual complexes. […]
The summed distribution of O^2axis axis parameters of all six complexes was fitted to a random distribution and to one, two- and three-gaussian distribution models. […] (3) where Ai, Ci and Wi define the population, centre and breadth, respectively, of the J, α and ω classes of motion.
The nine parameters were fitted using the nonlinear regression routine of SigmaPlot 2000 (SPSS). […] These centres were fixed in subsequent fitting of the O^2axis distributions of the individual complexes, from which the relative populations of each motional class were obtained. Uncertainties in the fitted populations were estimated by varying the O^2axis parameters by two standard deviations. […] The total change in conformational entropy of calmodulin on binding a target domain was calculated as the sum of three terms: ΔSconf=ΔSharm+ΔSrotamer(fast)+ΔSrotamer(slow). Changes in conformational entropy ΔSrotamer(fast) expressed as changes in motion within a rotameric well on the fast timescale (sub-ns) were obtained from the experimentally determined O^2axis parameters using a simple harmonic oscillator model. Li Z et al. (1996). To calculate changes in entropy derived from motion of the same oscillator, site-to-site comparison to free calcium-saturated calmodulin was used to provide a reference state. The change in the entropy reflected by the change in the motion of each methyl symmetry axis was estimated using ΔSharm=−18×ΔO^2axis J mol^−1 K^−1. See Li Z et al. (1996) for further details of the model. To normalize the unequal number of resolved sites among the complexes, the average methyl order parameter within a complex was assigned to each unresolved site of that complex. A classical entropy term (ΔSrotamer(fast)) was added to represent minor conformers that are sampled owing to fast rotameric interconversion that also contributes to the generalized order parameter. Lee, A. L. et al. Temperature dependence of the internal dynamics of a calmodulin peptide complex. Biochemistry 41, 13814-13825 (2002).

Setting [3] is: area under fitted Gaussian, fixed centres.
[4] abbreviates: percentage of counts in class (number of observations), O^2axis 0.5 to 0.7.
[5] abbreviates: percentage of counts in class (number of observations), O^2axis above 0.7.
Where [6] appears, read: percentage of counts in class (number of observations), O^2axis up to 0.5.

“(COOH-FPNGFSRKRLMSKVLIVTTWSPLL [CaMKKα(p)]”: in test [1], the TSconf was 168.6 kcal/mol, the “−TΔSconf” value is “+63.5 kJ/mol”, the “TSrotamer(fast)” value is 23.5 kcal/mol and the “TSrotamer(slow)” value is 2.25 kcal/mol. In addition, the TSharm in test [1] is 142.9 kcal/mol. In addition, in test [2] (setting [3]), the “% J” value stood at 38.5%, the “% α” value is recorded as 21.3% and the “% ω” value turned out to be 40.3%. Besides, the “% α” value in test [2] (setting [4]) amounted to 30%. The “% ω” value in test [2] (setting [5]) was found to be 35%. In addition, in test [2] (setting [6]), the “% J” value came out at 35%.

Turning to “AKSKWKQAFNATAVVRHMRKLQ (listed as Homo sapiens) [CaMKI(p)]”, in test [1], the TSconf is 168 kcal/mol, the “−TΔSconf” value is listed as “+66.0 kJ/mol”, the “TSrotamer(fast)” value is 22.6 kcal/mol and the “TSrotamer(slow)” value is 3.59 kcal/mol. Further, in test [1], the TSharm was 141.8 kcal/mol. In addition, in test [2] (setting [3]), the “% J” value worked out at 38.2%, the “% α” value came out at 24.8% and the “% ω” value stood at 37.0%. Also, in test [2] (setting [4]), the “% α” value is reported as 30%. For the same substance, the “% ω” value in test [2] (setting [5]) was 32%. The “% J” value in test [2] (setting [6]) is given as 38%.

On to KRRAIGFKKLAEAVKFSAKLMGQ [nNOS(p)], for which, in test [1], the TSconf was 180 kcal/mol, the “−TΔSconf” value is on record as “+15.9 kJ/mol”, the “TSrotamer(fast)” value was 26.31 kcal/mol and the “TSrotamer(slow)” value was 5.93 kcal/mol. The TSharm in test [1] is 147.8 kcal/mol. In addition, in test [2] (setting [3]), the “% J” value is given as 51.6%, the “% α” value turned out to be 14.7% and the “% ω” value was determined as 33.7%. The “% α” value in test [2] (setting [4]) came out at 25%. The “% ω” value in test [2] (setting [5]) was found to be 30%. In test [2] (setting [6]), the “% J” value is 45%.

In the case of QTEKMWQRLKGILRSLVKQ [PDE(p)], in test [1], the TSconf is 177.9 kcal/mol, the “−TΔSconf” value is on record as “+24.9 kJ/mol”, the “TSrotamer(fast)” value is 25.96 kcal/mol and the “TSrotamer(slow)” value was 3.56 kcal/mol. Further, the TSharm in test [1] is 148.3 kcal/mol. Besides, in test [2] (setting [3]), the “% J” value turned out to be 48.3%, the “% α” value amounted to 18.9% and the “% ω” value is 32.8%. Also, the “% α” value in test [2] (setting [4]) turned out to be 33%. Also, the “% ω” value in test [2] (setting [5]) amounted to 20%. Further, in test [2] (setting [6]), the “% J” value is 46%.

For the substance RKKTFKEVANAVKISASLMG [eNOS(p)], in test [1], the TSconf was 172.8 kcal/mol, the “−TΔSconf” value was “+46.1 kJ/mol”, the “TSrotamer(fast)” value was 24.21 kcal/mol and the “TSrotamer(slow)” value is 3.97 kcal/mol. In addition, in test [1], the TSharm was 144.6 kcal/mol. For the same substance, in test [2] (setting [3]), the “% J” value is reported as 45.6%, the “% α” value worked out at 18.4% and the “% ω” value came out at 36.0%. For the same substance, in test [2] (setting [4]), the “% α” value was determined as 30%. The “% ω” value in test [2] (setting [5]) came to 33%. Besides, the “% J” value in test [2] (setting [6]) turned out to be 38%.
